This test addresses HLA-A*01:01 (Homo sapiens, UniProt P04439, A114D/A174V/A182V/D101N/D185E/E176A/E190D/L180R/Q94H/R68K/S129P/T187R/V100A/V91M/W191G). Kind of test: MHC binding assay: UV-ligand exchange, ELISA of stabilized MHC complexes (peptide exchange yield). The conditions noted are these: binding to HLA-A*01:01, UV-ligand exchange. The source says: Candidate peptides for T cell based therapies according to the present invention were further tested for their MHC binding capacity (affinity). The individual peptide-MHC complexes were produced by UV-ligand exchange, where a UV-sensitive peptide is cleaved upon UV-irradiation and exchanged with the peptide of interest as analyzed. Only peptide candidates that can effectively bind and stabilize the peptide-receptive MHC molecules prevent dissociation of the MHC complexes. To determine the yield of the exchange reaction, an ELISA was performed based on the detection of the light chain (β2m) of stabilized MHC complexes. The assay was performed as generally described in Rodenko et al. (Rodenko et al., 2006)
96 well MAXISorp plates (NUNC) were coated over night with 2 ug/ml streptavidin in PBS at room temperature, washed 4× and blocked for 1 h at 37° C. in 2% BSA containing blocking buffer. Refolded HLA-A*02:01/MLA-001 monomers served as standards, covering the range of 15-500 ng/ml. Peptide-MHC monomers of the UV-exchange reaction were diluted 100-fold in blocking buffer. Samples were incubated for 1 h at 37° C., washed four times, incubated with 2 ug/ml HRP conjugated anti-β2m for 1 h at 37° C., washed again and detected with TMB solution that is stopped with […]. Absorption was measured at 450 nm.
A general note: ELISA stands for enzyme-linked immunosorbent assay.
As to “167 (RAVQPGETY; listed as Homo sapiens) [compound 167]”, the Peptide exchange entry was “+++ (>50 = +++)”.

For the substance “168 (VQPGETYTY; listed as Homo sapiens) [compound 168]”, the Peptide exchange result is given as “+++ (>50 = +++)”.

Take “169 (TVDNANILL; listed as Homo sapiens) [compound 169]”: the Peptide exchange result is on record as “++ (>20% = ++)”.

Turning to “170 (VQIAKGMNY; listed as Homo sapiens) [compound 170]”, the Peptide exchange result was “+++ (>50 = +++)”.

Take “171 (ITDFGLAKL; listed as Homo sapiens) [compound 171]”: the Peptide exchange result was “++ (>20% = ++)”.

On to “172 (FSEPFHLIV; listed as Homo sapiens) [compound 172]”, for which the Peptide exchange entry is “+++ (>50 = +++)”.

For “173 (QSTTGVSHY; listed as Homo sapiens) [compound 173]”, the Peptide exchange result is reported as “+++ (>50 = +++)”.

On to “174 (TSEVEGLAFVSY; listed as Homo sapiens) [compound 174]”, for which the Peptide exchange result is given as “+++ (>50 = +++)”.

As for “175 (GLEYEAPKLY; listed as Homo sapiens) [compound 175]”, the Peptide exchange result is given as “++ (>20% = ++)”.

Take “176 (HTDLESPSAVY; listed as Homo sapiens) [compound 176]”: the Peptide exchange entry was “+++ (>50 = +++)”.

With “177 (LVDGKWQEF; listed as Homo sapiens) [compound 177]”, the Peptide exchange entry is recorded as “++ (>20% = ++)”.

As for “178 (TQRTSFQFY; listed as Homo sapiens) [compound 178]”, the Peptide exchange result is “++ (>20% = ++)”.

Regarding “179 (SSTDFTFASW; listed as Homo sapiens) [compound 179]”, the Peptide exchange result was “+ (>10% =+)”.

On to “180 (AQISDTGRY; listed as Homo sapiens) [compound 180]”, for which the Peptide exchange entry is “++ (>20% = ++)”.

With “181 (SVTDLIGGKW; listed as Homo sapiens) [compound 181]”, the Peptide exchange entry is listed as “++ (>20% = ++)”.

As for “182 (TQPELSSRY; listed as Homo sapiens) [compound 182]”, the Peptide exchange entry is listed as “++ (>20% = ++)”.

Take “183 (LADTDLGMTF; listed as Homo sapiens) [compound 183]”: the Peptide exchange entry is listed as “++ (>20% = ++)”.

Consider “184 (KTIQEVAGY; listed as Homo sapiens) [compound 184]”, for which the Peptide exchange entry was “++ (>20% = ++)”.

As for “185 (NSDESADSEPHKY; listed as Homo sapiens) [compound 185]”, the Peptide exchange entry is given as “++++ (>75% = ++++)”.

On to “186 (AVSSGLFFY; listed as Homo sapiens) [compound 186]”, for which the Peptide exchange entry is recorded as “++ (>20% = ++)”.

Consider “187 (TQKSVQVLAY; listed as Homo sapiens) [compound 187]”, for which the Peptide exchange result is recorded as “++ (>20% = ++)”.

In the case of “188 (DIPDYLLQY; listed as Homo sapiens) [compound 188]”, the Peptide exchange entry was “+++ (>50 = +++)”.

Regarding “189 (FRGVFVHRY; listed as Homo sapiens) [compound 189]”, the Peptide exchange entry is recorded as “++ (>20% = ++)”.

For the substance “190 (VSSTVHNLY; listed as Homo sapiens) [compound 190]”, the Peptide exchange result is given as “++++ (>75% = ++++)”.

For the substance “191 (FTRAFDQLRM; listed as Homo sapiens) [compound 191]”, the Peptide exchange entry is “+++ (>50 = +++)”.

Take “192 (LAFYYGMY; listed as Homo sapiens) [compound 192]”: the Peptide exchange entry was “++ (>20% = ++)”.

On to “193 (SQNGQLIHY; listed as Homo sapiens) [compound 193]”, for which the Peptide exchange result is recorded as “+++ (>50 = +++)”.

Consider “194 (CYTADNEMGY; listed as Homo sapiens) [compound 194]”, for which the Peptide exchange entry is recorded as “+++ (>50 = +++)”.

On to “195 (YTADNEMGYY; listed as Homo sapiens) [compound 195]”, for which the Peptide exchange result is given as “+++ (>50 = +++)”.

On to “196 (RLAQYTIERY; listed as Homo sapiens) [compound 196]”, for which the Peptide exchange entry is given as “++ (>20% = ++)”.

On to “197 (NDEIDKLTGY; listed as Homo sapiens) [compound 197]”, for which the Peptide exchange result is “++++ (>75% = ++++)”.

In the case of “198 (KLTDYINANY; listed as Homo sapiens) [compound 198]”, the Peptide exchange entry is reported as “++ (>20% = ++)”.

Consider “199 (LCAAVLAKY; listed as Homo sapiens) [compound 199]”, for which the Peptide exchange entry is on record as “++ (>20% = ++)”.

As for “200 (SLPEFGLTY; listed as Homo sapiens) [compound 200]”, the Peptide exchange entry was “++ (>20% = ++)”.

For the substance “201 (SLPEFGLTYY; listed as Homo sapiens) [compound 201]”, the Peptide exchange entry was “++ (>20% = ++)”.

“202 (QTDINGGSLK; listed as Homo sapiens) [compound 202]”: the Peptide exchange entry is reported as “+++ (>50 = +++)”.

Regarding “203 (LSQDELSKF; listed as Homo sapiens) [compound 203]”, the Peptide exchange result is on record as “++ (>20% = ++)”.

On to “204 (NVKEAPTEY; listed as Homo sapiens) [compound 204]”, for which the Peptide exchange entry was “++ (>20% = ++)”.

On to “205 (RMQEGSEVY; listed as Homo sapiens) [compound 205]”, for which the Peptide exchange result is “++ (>20% = ++)”.

As to “207 (LLEGEDAHLTQY; listed as Homo sapiens) [compound 207]”, the Peptide exchange result is given as “+++ (>50 = +++)”.

As to “208 (LLISKAEDY; listed as Homo sapiens) [compound 208]”, the Peptide exchange entry was “++ (>20% = ++)”.

In the case of “209 (EADPFLKYL; listed as Homo sapiens) [compound 209]”, the Peptide exchange entry is listed as “++ (>20% = ++)”.

On to “210 (LLEADPFLKY; listed as Homo sapiens) [compound 210]”, for which the Peptide exchange result was “++++ (>75% = ++++)”.

As for “211 (YLNEWGSRF; listed as Homo sapiens) [compound 211]”, the Peptide exchange entry was “++ (>20% = ++)”.

“212 (MMTDLTSVY; listed as Homo sapiens) [compound 212]”: the Peptide exchange entry is reported as “+++ (>50 = +++)”.

As to “213 (VSDSTTEITY; listed as Homo sapiens) [compound 213]”, the Peptide exchange result is given as “+++ (>50 = +++)”.

Take “214 (VQDPSLPVY; listed as Homo sapiens) [compound 214]”: the Peptide exchange entry is on record as “++ (>20% = ++)”.

As to “215 (DTLEAATSLY; listed as Homo sapiens) [compound 215]”, the Peptide exchange result was “++ (>20% = ++)”.

Regarding “216 (NSMLDPLVY; listed as Homo sapiens) [compound 216]”, the Peptide exchange result was “++++ (>75% = ++++)”.

Take “217 (LMDEGAVLTL; listed as Homo sapiens) [compound 217]”: the Peptide exchange result was “++ (>20% = ++)”.

In the case of “218 (FTAQLQLY; listed as Homo sapiens) [compound 218]”, the Peptide exchange entry was “+++ (>50 = +++)”.

On to “219 (KTELETALYY; listed as Homo sapiens) [compound 219]”, for which the Peptide exchange result is on record as “+++ (>50 = +++)”.

For the substance “220 (DVERIKDTY; listed as Homo sapiens) [compound 220]”, the Peptide exchange result is reported as “++ (>20% = ++)”.

For “221 (TDVERIKDTY; listed as Homo sapiens) [compound 221]”, the Peptide exchange result is “+++ (>50 = +++)”.

For “222 (GSPDAVVSY; listed as Homo sapiens) [compound 222]”, the Peptide exchange entry is on record as “+ (>10% =+)”.

As for “223 (NAVDVVPSSF; listed as Homo sapiens) [compound 223]”, the Peptide exchange entry is listed as “+ (>10% =+)”.

Regarding “224 (RTDEGDNRVW; listed as Homo sapiens) [compound 224]”, the Peptide exchange result is recorded as “++ (>20% = ++)”.

As for “225 (STDPNIVRK; listed as Homo sapiens) [compound 225]”, the Peptide exchange entry was “+++ (>50 = +++)”.

Take “226 (QITPKHNGLY; listed as Homo sapiens) [compound 226]”: the Peptide exchange result is on record as “++ (>20% = ++)”.

For the substance “227 (ESAPKEVSRY; listed as Homo sapiens) [compound 227]”, the Peptide exchange result was “++ (>20% = ++)”.

In the case of “228 (KSFDDIAKY; listed as Homo sapiens) [compound 228]”, the Peptide exchange entry was “++ (>20% = ++)”.

Consider “229 (MTDVFIDY; listed as Homo sapiens) [compound 229]”, for which the Peptide exchange result is “+++ (>50 = +++)”.

Turning to “230 (CVIETFHKY; listed as Homo sapiens) [compound 230]”, the Peptide exchange entry is “+++ (>50 = +++)”.

With “231 (LLPLLVMAY; listed as Homo sapiens) [compound 231]”, the Peptide exchange entry is on record as “++ (>20% = ++)”.

As for “232 (RYLNIVHATQLY; listed as Homo sapiens) [compound 232]”, the Peptide exchange result was “++ (>20% = ++)”.

As for “233 (RINSATGQY; listed as Homo sapiens) [compound 233]”, the Peptide exchange entry was “++ (>20% = ++)”.

For “234 (YTDLTTIQV; listed as Homo sapiens) [compound 234]”, the Peptide exchange result is “++++ (>75% = ++++)”.

The values are drawn from US12195506B2, “Immunotherapy with A*01 restricted peptides and combination of peptides against cancers and related methods” (Immatics Biotechnologies GmbH, priority 2018, dated 2025).
